# According to patent US20240279332A1 (Amgen, published 2024):
# Positions count from the first letter of the chain named.
# T1: cyno TREM-1 on cells (cynomolgus monkey, UniProt A0A2K5VHG8 21-233)
# T1 sequence: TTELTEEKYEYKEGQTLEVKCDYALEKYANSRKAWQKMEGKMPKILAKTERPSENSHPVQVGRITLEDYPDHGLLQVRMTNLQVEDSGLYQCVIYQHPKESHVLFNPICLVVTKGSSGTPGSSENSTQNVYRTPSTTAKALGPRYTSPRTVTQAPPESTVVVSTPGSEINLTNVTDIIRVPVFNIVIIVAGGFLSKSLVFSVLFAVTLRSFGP
# B1: 44A5 (antibody, V domains shown)
# VH: EVQLLESGGGLVQPGGSLRLSCAASGFTFSTYAMNWVRQAPGKGLEWVSTVSGSGRPTYYADSVKGRFTISRDNSKNTLYLQMNSLRAEDTAVYYCAKAYYSNYLFDYWGQGTLVTVSS
# VL: EIVMTQSPAILSVSPGERATLSCRASQSVSSNLAWYQQKPGQAPRLLIYGASTRATGVPARFSGGGSGTDFTLTISSLQSEDFAVYYCQHCKTWPPLTFGGGTKVDLKR
# B2: 49A2 (antibody, V domains shown)
# VH: EVQLVESGGGLVQPGGSLRLSCAASGFTFSSNWMSWVRQAPGKGLDWMASMKQDGSEIYYVDSVKGRFTISRDNAKNSLHLQMNSLRAEDTAVYYCVRGGWRFESWGQGALVTVSS
# VL: EIVMTQSPATLSVSPGERATLSCRASQSVSSNLAWYQQKSGQAPRLLIYGASIRATGIPARVSGSGSGTEFTFTISSLQSEDFAVYYCQQYKNWPLTLGGGTKVEIKR
# B3: 50A12 (antibody, V domains shown)
# VH: EVQLVESGGGLVQPGGSLRLSCAASGFTFSSYWMSWVRQAPGKGLEWVANIKQDGSEEYYVDSVKGRFTISRDNAKNSLFLQMNSLRAEDTAVYYCARDYGDSFDYWGQGTLVTVSS
# VL: DIQMTQSPSSVSASVGDRVTITCRASQGIRKWLAWYQQKPGRAPKLLIYAASRLQSGVPSRFSGSGSGTDFTLTISSLRPEDFATYYCLQAHGFPWTFGQGTKVEIKR
# B4: 30H2 (antibody, V domains shown)
# VH: EVQVLESGGGLVQPGESLRLSCTASGFTFNAYAMSWVRQAPGKGLEWVSTISGSGSTTYYADSVKGRFTISRDNSKNTLDLQMNSLRAADTAVYYCAKVAGSNFFFDHWGQGTLVTVSS
# VL: EIVMTQSPATLSVSPGERATLSCRASQSINSNLAWYQQKPGQAPRLLIYGAYTRATGIPDRFSGSGSGTEFTLTISSLQSEDFAVYYCQEFIMWPPWTFGLGTQVEIKR
# B5: 46H7 (antibody, V domains shown)
# VH: EVQLLESGGGMVQPGGSLRLSCAVSGFTFSRYAMSWVRQAPGKGLEWVSEMRGSSGSTYYADSVKGRFTISRDNSKNTLYLQMNSLRVEDTAIYYCAKEFSSNSLFDYWGQGTLVTVSS
# VL: B4 VL with I29V, Q42R, Y52S, D60A, E90Q, I92Y, M93N, L101Q, Q104K
# B6: 66B8 (antibody, V domains shown)
# VH: QVQLVQSGAEVKKPGASVKVSCKASGYTFTGYYMHWVRQAPGQGLEWMGWFKPNSGVTNYAQKFQGRVTMSRDTSISTAYMELSSLRSDDTAVYYCARAGYSTSWKDWFDPWGQGTLVTVSS
# VL: DIQMTQFPSSVSASVGDRVTITCRASQGISRWLAWYQQKQGKAPKLLIYMVSSLQSGVPSRFSGSGSGTDFTLTISSLQPEDFATYYCQQSHNFPITFGQGTRLDIKR
# B7: 61G5 (antibody, V domains shown)
# VH: QVQLVQSGAEVKKPGASVKVSCKASGYTFTSYDINWVRQATGQGLEWMGWMNPNSGNSGSVKKFRDRVTMTRNTSISTAYMELSSLRSEDTAVYYCVRLIGYSSAWKWSFQHWGQGTLVTVSS
# VL: DIQMTQSPSSLSASVGDRVTITCQASRDISKYLNWYQQKPGKAPKLQIYDASNLETGVPSRFSGSGSGTDFTFTISSLQPEDIATYYCQHYDNIPITFGQGTRLEIKR
# B8: 57C10 (antibody, V domains shown)
# VH: QVQLVQSGAEVKKPGASVKVSCKASGYTFTRYDINWVRQATGQGLEWMGWLNPNSGNTGQTQKFRGRVTMTRNTSINTAYMELSSLRSEDTAVYYCARGGYTSAWRWYFDLWGRGTLVTVSS
# VL: DIQMTQSPSSLSASVGDRVTITCQASQDINNHLNWYQQKPGKAPKLLIYDVSNLETGVPSSFSGSGCGTDFTFTISSLQPEDIATYFCQQYDKLPLTFGGGTKVEIEG
# B9: 61B12 (antibody, V domains shown)
# VH: QVQLVQSGAEVTKPGASVKVSCKASGYTFTRYDINWVRQATGQGLEWMGWMNPNSGNSGSVQKFRGRVTMTRNTSITTVYMELSSLRSDDTAVYYCARGGISSSWHWAFDIWGQGTMVTVSS
# VL: B8 VL with D50G, V51A, S52Y, N53T, S61R, C67S, F87Y, E107K, G108R
# B10: 63F8 (antibody, V domains shown)
# VH: QVQLVQSGAEVKKPGASVKVSCKASGYTFTSYDINWVRQATGQGLEWMGRMNPKSGNAGYVQNFRGRVTMTRNTSISTAYMELSSLRSEDTAVYYCARGGRTSIWSFVFDYWGQGTLVTVSS
# VL: B8 VL with N30S, N31K, V51T, S61R, C67S, F87N, E107K, G108R
# B11: 64D7 (antibody, V domains shown)
# VH: QVQLVQSGAEVKKPGASVKVSCKASGYTFTSYDINWVRQATGQGLEWMGWMNPNRGNTGYVKKFQGRVTMTRNTSISTAYMELSSLRSEDTAVYYCARRRAVYRSSWEWYFDLWGRGTLVTVSS
# VL: DTQMTQSPSSLSASEGDRVTITCQASQDIFNDLNWYQEKPGKAPKLLIYHASNLETGVPSRFSGSGSGTDYTFTISSLQPEDIATYYCQQYGNLPLTFGGGTKVEIKR
# Target: T1, cyno TREM-1 on cells
# Assay: cell-based or functional assay
"Ab IC50-Cyno PBMC (Trial 1), TNFα release after cyno PGLYRP1/PGN","Ab IC50-Cyno PBMC (Trial 2), TNFα release after cyno PGLYRP1/PGN",Binder
0.0579 nM,0.0091 nM,B1
0.732 nM,0.266 nM,B2
2 nM,,B3
3.77 nM,,B4
0.0951 nM,0.0097 nM,B5
0.114 nM,0.0232 nM,B6
,2.34 nM,B7
0.154 nM,0.0284 nM,B8
0.0469 nM,0.0174 nM,B9
0.0226 nM,0.0161 nM,B10
6.94 nM,0.78 nM,B11
